# Results from PMC10388305, “Synthesis and Evaluation of a Monomethyl Auristatin E—Integrin αvβ6 Binding Peptide–Drug Conjugate for Tumor Targeted Drug Delivery” (Journal of Medicinal Chemistry, 2023).
# Read-outs that look alike come from different tables or passages of the source.
# What was measured:
# [1] = Blocking biodistribution, paired DX3puroβ6/DX3puro model; assay type: in vivo, mice; conditions: female, athymic nude, mouse, iv, total radioactivity, 4 h p.i., DOTA-2 (50 mg/kg, 205 nmol) i.v. 10 min prior, γ-counter, mean ± SD, n = 2
# Protocol: Aliquots of the formulated [^64Cu]PDC-1 in isotonic 0.9% saline (4.81–5.74 MBq, 1.7–2.1 μg, 0.26–0.31 nmol, 100 μL, pH 7.2) were injected i.v. as described above. Following the conscious uptake period, the mice were anesthetized (5% isoflurane), euthanized, and dissected (n ≥ 3/model/time point [4, 24, and 48 h]; the 48 h time point also included the imaging animals sacrificed after the PET scans). Tissues were collected, washed, weighed, and radioactivity measured in a γ-counter. Calibrated, decay-corrected radioactivity was expressed as the percentage of injected dose per gram of tissue (% ID/g). Data are reported as mean ± SD. The mean weights and standard deviation of the DX3puroβ6/DX3puro paired tumor model biodistribution mice were 24.3 ± 1.4 g at 4 h, 28.2 ± 2.9 g at 24 h, and 27.7 ± 2.6 g at 48 h. The mean weights and standard deviation of the BxPC-3 tumor model biodistribution mice were 25.1 ± 1.9 g at 4 h, 27.0 ± 1.1 g at 24 h and 27.1 ± 3.2 g at 48 h. For in vivo blocking studies, DOTA-2 (50 mg/kg, 205 nmol, 1.4 mg in 100 μL 0.9% saline) was injected i.v. into two animals/tumor model 10 min prior to [^64Cu]PDC-1. The animals were sacrificed after 4 h, tissues collected, washed, weighed, and radioactivity measured in a γ-counter. The mean weights and standard deviation for the blocking mice were 24.6 ± 0 and 27.9 ± 0.3 g for the DX3puroβ6/DX3puro paired and BxPC-3 tumor models, respectively.
# Blocking biodistribution data of [64Cu]PDC-1 in paired DX3puroβ6/DX3puro and BxPC-3 tumor models.
# Tumor Model DX3puroβ6/DX3puro BxPC-3
# Table S6. Blocking biodistribution data of [ 64Cu]PDC-1 in paired DX3puroβ6/DX3puro and BxPC-3 tumor
# models. Tissue uptake is expressed as the mean of the percentage of injected dose per gram of tissue ±
# SD (n = 2/model, n/a = not applicable. P = 0.53 for DX3puroβ6 vs. DX3puro; P = 0.52 for BxPC-3 vs.
# BxPC-3 (+) cells = assay: Cell binding assay, BxPC-3; assay type: cell-based; conditions: 1 h, 37 °C, γ-counter, n = 3
# Description: Binding to cells with minimal to no expression of integrin αvβ6 was low at 4.4 ± 0.1% to DX3puro cells and 7.9 ± 0.4% to pancreatic MIA PaCa-2 cells. Binding of [^64Cu]PDC-1 to DX3puroβ6 (+) and BxPC-3 (+) was reduced by adding increasing amounts of DOTA-PDC-1, illustrating that the αvβ6-selective uptake could be blocked (Figure S3). Internalization of [^64Cu]-PDC-1 into cells was high with >50% of the bound radioactivity internalized for all cells expressing the integrin αvβ6. In comparison, cell binding of [^64Cu]2 to DX3puroβ6 (+) cells was 58.8 ± 2.3, and 3.3 ± 0.4% to the DX3puro (−) cells.
# Cell binding and internalization assay. Binding and internalization were determined as previously described. […] The fraction of bound radioactivity was determined with a γ-counter (by measuring cell pellet and combined supernatants). To determine the fraction of internalized radioactivity, the cells were re-pelleted, and re-suspended in acidic wash buffer (0.2 M sodium acetate, 0.5 M sodium chloride, pH = 2.5, 300 μL, 4 °C, 5 min) to release surface bound activity, followed by a wash with PBS (300 μL). The internalized fraction was determined with a γ-counter (cell pellet vs. radioactivity released into supernatant). A Wizard 1470 or Wizard 2 2470 automatic γ-counter (Perkin-Elmer, Waltham, MA) was used to measure radioactivity samples. […]
compound,measurement,setting,value
"CC[C@H](C)[C@@H]([C@@H](CC(=O)N1CCC[C@H]1[C@H](OC)[C@@H](C)C(=O)N[C@H](C)[C@@H](O)c1ccccc1)OC)N(C)C(=O)[C@@H](NC(=O)[C@H](C(C)C)N(C)C(=O)OCc1ccc(NC(=O)[C@H](CCCNC(N)=O)NC(=O)[C@@H](NC(=O)CCOCCOCCNC(=O)CCN2C(=O)CC(SC[C@H](NC(=O)CN3CCN(CC(=O)O)CCN(CC(=O)O)CCN(CC(=O)O)CC3)C(=O)NCCOCCOCCOCCOCCOCCOCCOCCOCCOCCOCCOCCOCCOCCOCCOCCOCCOCCOCCOCCOCCOCCOCCOCCOCCOCCOCCOCCOCCC(=O)N[C@@H](CC(N)=O)C(=O)N[C@@H](C)C(=O)N[C@H](C(=O)N3CCC[C@H]3C(=O)N[C@@H](CC(N)=O)C(=O)N[C@@H](CC(C)C)C(=O)N[C@@H](CCCNC(=N)N)C(=O)NCC(=O)N[C@@H](CC(=O)O)C(=O)N[C@@H](CC(C)C)C(=O)N[C@@H](CCC(N)=O)C(=O)N[C@H](C(=O)N[C@@H](CC(C)C)C(=O)N[C@@H](C)C(=O)N[C@@H](CCC(N)=O)C(=O)N[C@@H](CCCNC(=N)N)C(=O)N[C@H](C(=O)N[C@@H](C)C(=O)N[C@@H](CCCNC(=N)N)C(=O)N[C@H](C(=O)NCCOCCOCCOCCOCCOCCOCCOCCOCCOCCOCCOCCOCCOCCOCCOCCOCCOCCOCCOCCOCCOCCOCCOCCOCCOCCOCCOCCOCCC(N)=O)[C@@H](C)O)C(C)C)C(C)C)C(C)C)C2=O)C(C)C)cc1)C(C)C (stereo partly drawn) [[^64Cu]PDC-1, metal not drawn]",tissue uptake at 4 h,"[1]; DX3puro (αvβ6 −) tumor, read-out: Tumor (αvβ6 −) DX3puro uptake, blocked",0.42 ± 0.04 %ID/g
same,tissue uptake at 4 h,"[1]; DX3puroβ6 (αvβ6 +) tumor, read-out: Tumor (αvβ6 +) DX3puroβ6 uptake, blocked",0.39 ± 0.04 %ID/g
same,tissue uptake at 4 h,"[1]; blood, read-out: Blood uptake, blocked",0.08 ± 0.02 %ID/g
same,tissue uptake at 4 h,"[1]; bone, read-out: Bone uptake, blocked",0.1 ± 0.03 %ID/g
same,tissue uptake at 4 h,"[1]; brain, read-out: Brain uptake, blocked",0.02 %ID/g
same,tissue uptake at 4 h,"[1]; gall bladder, read-out: Gall Bladder uptake, blocked",0.28 ± 0.4 %ID/g
same,tissue uptake at 4 h,"[1]; heart, read-out: Heart uptake, blocked",0.17 ± 0.03 %ID/g
same,tissue uptake at 4 h,"[1]; kidney, read-out: Kidney uptake, blocked",36.4 ± 5.43 %ID/g
same,tissue uptake at 4 h,"[1]; large intestines, read-out: Large Intestines uptake, blocked",0.51 ± 0.1 %ID/g
same,tissue uptake at 4 h,"[1]; liver, read-out: Liver uptake, blocked",1.39 ± 0.45 %ID/g
same,tissue uptake at 4 h,"[1]; lung, read-out: Lung uptake, blocked",0.39 ± 0.09 %ID/g
same,tissue uptake at 4 h,"[1]; muscle, read-out: Muscle uptake, blocked",0.04 %ID/g
same,tissue uptake at 4 h,"[1]; pancreas, read-out: Pancreas uptake, blocked",0.08 ± 0.01 %ID/g
same,tissue uptake at 4 h,"[1]; skin, read-out: Skin uptake, blocked",0.29 ± 0.02 %ID/g
same,tissue uptake at 4 h,"[1]; small intestines, read-out: Small Intestines uptake, blocked",0.36 ± 0.02 %ID/g
same,tissue uptake at 4 h,"[1]; spleen, read-out: Spleen uptake, blocked",0.19 ± 0.01 %ID/g
same,tissue uptake at 4 h,"[1]; stomach, read-out: Stomach uptake, blocked",0.27 ± 0.06 %ID/g
same,Cell binding,BxPC-3 (+) cells,62.0 ± 1.0%
